According to the supplement of paper PMC10065799, “High-throughput profiling of sequence recognition by tyrosine kinases and SH2 domains using bacterial peptide display” (eLife, 2023):
Values belong to the sequence of their own block, whether it stands above or below them.

Legend:
Jak2 = Jak2 (UniProt O60674); experiment: phosphorylation enrichment, bacterial display (enrichment ratio); higher = better substrate or ligand; peptides without Tyr show the background
EPHB2 = EPHB2 (UniProt P29323); experiment: as above
c-Abl (mouse) = experiment: as above
c-Src = experiment: as above
AncSZ = experiment: as above
FGFR1 = FGFR1 (UniProt P11362); experiment: as above
Fes = Fes (UniProt P07332); experiment: as above
FGFR3 = FGFR3 (UniProt P22607); experiment: as above
Fyn = Fyn (UniProt P06241); experiment: as above
MERTK = MERTK (UniProt Q12866); experiment: as above
Hck = Hck (UniProt P08631); experiment: as above
Fer (mouse) = experiment: as above
EPHB1 = EPHB1 (UniProt P54762); experiment: as above
Grb2 SH2 = Grb2 SH2 (UniProt P62993); experiment: SH2 binding enrichment of the phosphorylated peptide, bacterial display (enrichment ratio); higher = better substrate or ligand; peptides without Tyr show the background
SHP2-C SH2 = experiment: as above
c-Src SH2 = experiment: as above
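Wherever SH2 binding enrichment of the phosphorylated peptide, bacterial display is given: peptide library displayed on the E. coli surface as eCPX fusions, selected cells deep-sequenced, score is each peptide's frequency after selection divided by its frequency in the input.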
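Wherever phosphorylation enrichment, bacterial display is given: 11-residue human phosphosite peptides and single-mutation variants displayed on the E. coli surface, counted by deep sequencing, each peptide's frequency after selection divided by its frequency in the unselected input library; frequency after pTyr selection over input frequency; kinase dosed for 20-30% of maximal phosphorylation in three min.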

Chain of Fes (P07332 whole entry, looked up): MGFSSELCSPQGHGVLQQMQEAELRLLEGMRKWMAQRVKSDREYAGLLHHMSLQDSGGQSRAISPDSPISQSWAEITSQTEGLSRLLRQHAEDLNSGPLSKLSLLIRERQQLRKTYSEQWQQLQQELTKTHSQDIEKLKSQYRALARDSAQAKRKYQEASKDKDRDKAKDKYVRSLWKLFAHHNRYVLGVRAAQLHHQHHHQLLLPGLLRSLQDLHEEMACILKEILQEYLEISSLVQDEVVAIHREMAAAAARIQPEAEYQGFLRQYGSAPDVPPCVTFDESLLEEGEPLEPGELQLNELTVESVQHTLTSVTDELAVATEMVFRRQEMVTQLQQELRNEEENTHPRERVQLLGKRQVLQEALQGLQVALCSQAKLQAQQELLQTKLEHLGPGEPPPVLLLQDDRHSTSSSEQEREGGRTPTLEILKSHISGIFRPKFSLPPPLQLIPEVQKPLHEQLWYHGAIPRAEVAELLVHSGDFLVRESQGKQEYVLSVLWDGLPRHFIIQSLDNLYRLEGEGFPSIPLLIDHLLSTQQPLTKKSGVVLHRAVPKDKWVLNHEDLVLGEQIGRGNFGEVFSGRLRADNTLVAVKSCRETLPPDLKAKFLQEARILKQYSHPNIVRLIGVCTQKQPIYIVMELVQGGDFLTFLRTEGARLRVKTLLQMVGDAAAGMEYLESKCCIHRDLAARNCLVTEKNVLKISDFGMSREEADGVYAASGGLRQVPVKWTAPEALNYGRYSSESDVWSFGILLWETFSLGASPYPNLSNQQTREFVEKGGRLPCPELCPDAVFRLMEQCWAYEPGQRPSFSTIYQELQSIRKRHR
Chain of FGFR1 (P11362 whole entry, looked up): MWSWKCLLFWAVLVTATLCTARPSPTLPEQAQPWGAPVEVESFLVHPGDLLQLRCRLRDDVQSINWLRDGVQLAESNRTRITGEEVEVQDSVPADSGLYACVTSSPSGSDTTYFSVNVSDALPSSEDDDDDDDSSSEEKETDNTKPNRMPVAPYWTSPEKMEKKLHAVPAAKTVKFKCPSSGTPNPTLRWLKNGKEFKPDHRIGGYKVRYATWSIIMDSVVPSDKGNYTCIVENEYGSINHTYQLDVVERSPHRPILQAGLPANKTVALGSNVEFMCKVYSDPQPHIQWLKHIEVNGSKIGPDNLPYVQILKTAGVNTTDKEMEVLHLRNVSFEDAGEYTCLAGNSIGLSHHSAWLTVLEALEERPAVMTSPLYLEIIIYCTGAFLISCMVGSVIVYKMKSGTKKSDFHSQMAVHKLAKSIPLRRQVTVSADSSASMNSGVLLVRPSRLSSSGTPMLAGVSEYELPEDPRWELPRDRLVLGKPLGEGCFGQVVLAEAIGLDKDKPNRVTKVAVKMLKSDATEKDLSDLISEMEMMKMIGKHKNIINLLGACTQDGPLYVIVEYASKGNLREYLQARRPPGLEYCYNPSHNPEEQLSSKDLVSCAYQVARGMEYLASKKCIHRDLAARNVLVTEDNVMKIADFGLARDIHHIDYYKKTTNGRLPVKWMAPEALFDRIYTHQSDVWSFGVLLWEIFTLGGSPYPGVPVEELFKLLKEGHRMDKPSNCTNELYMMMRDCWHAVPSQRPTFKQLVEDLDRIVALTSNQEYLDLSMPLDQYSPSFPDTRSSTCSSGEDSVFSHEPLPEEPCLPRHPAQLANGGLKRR
Chain of FGFR3 (P22607 whole entry, looked up): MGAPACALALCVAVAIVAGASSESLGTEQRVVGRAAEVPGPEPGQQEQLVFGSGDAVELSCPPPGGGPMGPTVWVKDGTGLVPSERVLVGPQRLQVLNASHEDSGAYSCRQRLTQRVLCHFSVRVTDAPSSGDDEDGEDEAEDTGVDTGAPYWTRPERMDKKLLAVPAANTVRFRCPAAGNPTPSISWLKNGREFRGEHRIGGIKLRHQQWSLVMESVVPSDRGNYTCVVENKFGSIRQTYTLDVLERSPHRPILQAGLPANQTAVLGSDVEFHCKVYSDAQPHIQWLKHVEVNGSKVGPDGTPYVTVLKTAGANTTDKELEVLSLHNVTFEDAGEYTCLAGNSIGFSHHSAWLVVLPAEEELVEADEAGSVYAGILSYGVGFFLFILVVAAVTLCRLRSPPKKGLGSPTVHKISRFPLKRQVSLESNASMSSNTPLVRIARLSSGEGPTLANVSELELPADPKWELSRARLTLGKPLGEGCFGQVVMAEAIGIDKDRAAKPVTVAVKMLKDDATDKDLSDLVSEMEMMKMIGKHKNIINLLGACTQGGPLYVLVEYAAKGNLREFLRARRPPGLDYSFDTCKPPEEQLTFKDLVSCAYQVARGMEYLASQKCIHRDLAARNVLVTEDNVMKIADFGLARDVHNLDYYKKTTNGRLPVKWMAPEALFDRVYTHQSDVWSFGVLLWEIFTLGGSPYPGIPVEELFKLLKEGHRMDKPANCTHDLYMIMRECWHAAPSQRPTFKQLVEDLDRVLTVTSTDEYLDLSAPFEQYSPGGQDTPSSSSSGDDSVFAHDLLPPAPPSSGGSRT
Chain of EPHB2 (P29323 whole entry, looked up): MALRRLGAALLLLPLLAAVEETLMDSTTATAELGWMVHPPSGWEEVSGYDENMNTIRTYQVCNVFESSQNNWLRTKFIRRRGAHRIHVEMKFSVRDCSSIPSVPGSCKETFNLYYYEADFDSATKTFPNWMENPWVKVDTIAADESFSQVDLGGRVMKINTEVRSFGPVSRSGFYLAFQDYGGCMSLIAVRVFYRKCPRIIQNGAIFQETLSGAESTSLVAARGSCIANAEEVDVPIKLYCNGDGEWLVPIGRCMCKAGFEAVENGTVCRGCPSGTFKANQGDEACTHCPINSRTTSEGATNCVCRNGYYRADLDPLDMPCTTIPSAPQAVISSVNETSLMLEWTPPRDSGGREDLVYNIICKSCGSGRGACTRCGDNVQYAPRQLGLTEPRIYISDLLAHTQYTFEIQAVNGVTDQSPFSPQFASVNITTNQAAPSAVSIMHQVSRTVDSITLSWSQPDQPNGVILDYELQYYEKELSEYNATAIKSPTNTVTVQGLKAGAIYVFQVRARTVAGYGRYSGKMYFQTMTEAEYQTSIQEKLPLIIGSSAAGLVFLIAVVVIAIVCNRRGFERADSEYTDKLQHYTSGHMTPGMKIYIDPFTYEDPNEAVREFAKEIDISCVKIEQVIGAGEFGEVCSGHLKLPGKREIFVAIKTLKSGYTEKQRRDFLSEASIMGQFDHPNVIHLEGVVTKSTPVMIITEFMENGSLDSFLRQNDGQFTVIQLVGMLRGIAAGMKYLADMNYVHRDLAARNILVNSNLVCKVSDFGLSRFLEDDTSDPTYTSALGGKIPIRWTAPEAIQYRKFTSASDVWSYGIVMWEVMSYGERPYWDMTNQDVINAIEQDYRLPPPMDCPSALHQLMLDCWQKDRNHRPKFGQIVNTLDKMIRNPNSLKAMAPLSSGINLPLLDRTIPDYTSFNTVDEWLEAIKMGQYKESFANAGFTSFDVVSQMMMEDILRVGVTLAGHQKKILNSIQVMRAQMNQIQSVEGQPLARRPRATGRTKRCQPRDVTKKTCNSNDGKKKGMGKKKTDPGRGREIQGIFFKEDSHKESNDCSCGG
Chain of EPHB1 (P54762 whole entry, looked up): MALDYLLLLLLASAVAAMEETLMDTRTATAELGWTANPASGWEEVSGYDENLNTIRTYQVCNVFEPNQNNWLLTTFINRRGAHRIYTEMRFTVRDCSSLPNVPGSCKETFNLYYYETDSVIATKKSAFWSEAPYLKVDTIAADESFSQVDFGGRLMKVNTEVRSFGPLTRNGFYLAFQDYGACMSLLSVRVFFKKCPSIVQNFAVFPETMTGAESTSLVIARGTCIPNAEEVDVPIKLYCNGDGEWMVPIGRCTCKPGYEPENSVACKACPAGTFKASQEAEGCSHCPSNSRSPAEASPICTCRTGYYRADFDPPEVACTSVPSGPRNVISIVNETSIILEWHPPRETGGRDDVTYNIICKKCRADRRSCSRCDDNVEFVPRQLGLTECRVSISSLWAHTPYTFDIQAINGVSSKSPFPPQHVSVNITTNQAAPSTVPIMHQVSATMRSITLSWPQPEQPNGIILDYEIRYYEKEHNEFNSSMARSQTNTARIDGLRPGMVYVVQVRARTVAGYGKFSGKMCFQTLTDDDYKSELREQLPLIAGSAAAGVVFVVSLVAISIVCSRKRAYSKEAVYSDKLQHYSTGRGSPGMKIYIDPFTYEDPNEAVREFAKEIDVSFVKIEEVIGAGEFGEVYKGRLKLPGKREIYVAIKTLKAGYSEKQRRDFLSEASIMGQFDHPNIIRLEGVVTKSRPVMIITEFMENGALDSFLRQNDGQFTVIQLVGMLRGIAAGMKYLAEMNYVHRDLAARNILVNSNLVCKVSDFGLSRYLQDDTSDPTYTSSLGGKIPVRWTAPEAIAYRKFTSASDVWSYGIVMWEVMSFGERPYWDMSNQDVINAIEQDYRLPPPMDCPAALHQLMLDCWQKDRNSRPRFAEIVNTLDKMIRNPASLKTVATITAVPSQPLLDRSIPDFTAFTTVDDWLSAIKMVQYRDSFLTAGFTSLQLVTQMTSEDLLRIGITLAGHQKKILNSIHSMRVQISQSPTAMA
Chain of Hck (P08631 whole entry, looked up): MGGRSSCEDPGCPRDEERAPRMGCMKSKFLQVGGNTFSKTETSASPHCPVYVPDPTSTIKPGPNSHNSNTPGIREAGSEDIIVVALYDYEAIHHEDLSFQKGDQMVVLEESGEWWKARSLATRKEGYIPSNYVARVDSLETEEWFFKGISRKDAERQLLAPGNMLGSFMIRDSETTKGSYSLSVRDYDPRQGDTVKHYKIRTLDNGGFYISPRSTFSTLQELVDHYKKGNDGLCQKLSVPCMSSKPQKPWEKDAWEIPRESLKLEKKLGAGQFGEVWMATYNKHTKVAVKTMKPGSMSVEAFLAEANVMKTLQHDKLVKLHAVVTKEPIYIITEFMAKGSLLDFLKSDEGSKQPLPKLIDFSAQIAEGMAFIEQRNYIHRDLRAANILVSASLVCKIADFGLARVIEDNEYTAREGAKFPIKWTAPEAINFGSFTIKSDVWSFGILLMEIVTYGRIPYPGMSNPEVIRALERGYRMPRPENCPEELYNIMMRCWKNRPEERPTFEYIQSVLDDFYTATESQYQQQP

Sequence: EPVSDYINANI [PTPN11_Y304]
phosphorylation enrichment (Jak2): 0.799
phosphorylation enrichment (EPHB2): 0.495
phosphorylation enrichment (c-Abl (mouse)): 0.603
phosphorylation enrichment (c-Src): 0.38
phosphorylation enrichment (AncSZ): 0.997
phosphorylation enrichment (FGFR1): 0.454
phosphorylation enrichment (Fes): 0.847
phosphorylation enrichment (FGFR3): 0.673
phosphorylation enrichment (Fyn): 0.447
phosphorylation enrichment (MERTK): 0.325
phosphorylation enrichment (Hck): 0.541
phosphorylation enrichment (Fer (mouse)): 0.412
phosphorylation enrichment (EPHB1): 0.433
SH2 binding enrichment (Grb2 SH2): 0.819
SH2 binding enrichment (SHP2-C SH2): 0.911
SH2 binding enrichment (c-Src SH2): 0.466

Sequence: TPLSAYQIPRT [GAB2_Y324]
phosphorylation enrichment (Jak2): 0.615
phosphorylation enrichment (EPHB2): 0.466
phosphorylation enrichment (c-Abl (mouse)): 8.8
phosphorylation enrichment (c-Src): 0.435
phosphorylation enrichment (AncSZ): 0.593
phosphorylation enrichment (FGFR1): 0.408
phosphorylation enrichment (Fes): 0.539
phosphorylation enrichment (FGFR3): 0.317
phosphorylation enrichment (Fyn): 0.365
phosphorylation enrichment (MERTK): 0.703
phosphorylation enrichment (Hck): 0.29
phosphorylation enrichment (Fer (mouse)): 0.586
phosphorylation enrichment (EPHB1): 0.415
SH2 binding enrichment (Grb2 SH2): 1.04
SH2 binding enrichment (SHP2-C SH2): 0.853
SH2 binding enrichment (c-Src SH2): 0.792

Sequence: WHHTFYNEPRV [ACTA1_Y93_L96P]
phosphorylation enrichment (Jak2): 0.794
phosphorylation enrichment (EPHB2): 0.497
phosphorylation enrichment (c-Abl (mouse)): 0.709
phosphorylation enrichment (c-Src): 0.508
phosphorylation enrichment (AncSZ): 0.965
phosphorylation enrichment (FGFR1): 0.522
phosphorylation enrichment (Fes): 1.03
phosphorylation enrichment (FGFR3): 0.561
phosphorylation enrichment (Fyn): 0.429
phosphorylation enrichment (MERTK): 0.59
phosphorylation enrichment (Hck): 0.552
phosphorylation enrichment (Fer (mouse)): 0.582
phosphorylation enrichment (EPHB1): 0.573
SH2 binding enrichment (Grb2 SH2): 1.4
SH2 binding enrichment (SHP2-C SH2): 1.07
SH2 binding enrichment (c-Src SH2): 1.57

Sequence: FLAATYPTVGQ [NF1_Y2508_YF]
phosphorylation enrichment (Jak2): 0.404
phosphorylation enrichment (EPHB2): 0.494
phosphorylation enrichment (c-Abl (mouse)): 0.401
phosphorylation enrichment (c-Src): 0.426
phosphorylation enrichment (AncSZ): 0.548
phosphorylation enrichment (FGFR1): 0.357
phosphorylation enrichment (Fes): 0.634
phosphorylation enrichment (FGFR3): 0.523
phosphorylation enrichment (Fyn): 0.435
phosphorylation enrichment (MERTK): 0.396
phosphorylation enrichment (Hck): 0.518
phosphorylation enrichment (Fer (mouse)): 0.593
phosphorylation enrichment (EPHB1): 0.444
SH2 binding enrichment (Grb2 SH2): 0.835
SH2 binding enrichment (SHP2-C SH2): 0.888
SH2 binding enrichment (c-Src SH2): 0.57

Sequence: LKALKYKSMKI [ITGA11_Y1098]
phosphorylation enrichment (Jak2): 0.735
phosphorylation enrichment (EPHB2): 0.31
phosphorylation enrichment (c-Abl (mouse)): 0.568
phosphorylation enrichment (c-Src): 0.322
phosphorylation enrichment (AncSZ): 0.374
phosphorylation enrichment (FGFR1): 0.225
phosphorylation enrichment (Fes): 0.701
phosphorylation enrichment (FGFR3): 0.619
phosphorylation enrichment (Fyn): 0.641
phosphorylation enrichment (MERTK): 0.336
phosphorylation enrichment (Hck): 0.424
phosphorylation enrichment (Fer (mouse)): 0.452
phosphorylation enrichment (EPHB1): 0.299
SH2 binding enrichment (Grb2 SH2): 1.34
SH2 binding enrichment (SHP2-C SH2): 0.876
SH2 binding enrichment (c-Src SH2): 0.783

Sequence: KVMANYVFKAG [MAML2_Y513_M514V_YF]
phosphorylation enrichment (Jak2): 0.564
phosphorylation enrichment (EPHB2): 0.515
phosphorylation enrichment (c-Abl (mouse)): 0.485
phosphorylation enrichment (c-Src): 0.433
phosphorylation enrichment (AncSZ): 0.617
phosphorylation enrichment (FGFR1): 0.459
phosphorylation enrichment (Fes): 0.656
phosphorylation enrichment (FGFR3): 0.486
phosphorylation enrichment (Fyn): 0.382
phosphorylation enrichment (MERTK): 0.401
phosphorylation enrichment (Hck): 0.435
phosphorylation enrichment (Fer (mouse)): 0.355
phosphorylation enrichment (EPHB1): 0.396
SH2 binding enrichment (Grb2 SH2): 1.1
SH2 binding enrichment (SHP2-C SH2): 0.663
SH2 binding enrichment (c-Src SH2): 0.614

Sequence: TNYPLYLRSLE [MTM1_Y71_R69P]
phosphorylation enrichment (Jak2): 1.28
phosphorylation enrichment (EPHB2): 0.727
phosphorylation enrichment (c-Abl (mouse)): 0.668
phosphorylation enrichment (c-Src): 0.499
phosphorylation enrichment (AncSZ): 1.18
phosphorylation enrichment (FGFR1): 0.671
phosphorylation enrichment (Fes): 1.36
phosphorylation enrichment (FGFR3): 0.987
phosphorylation enrichment (Fyn): 0.603
phosphorylation enrichment (MERTK): 0.551
phosphorylation enrichment (Hck): 0.654
phosphorylation enrichment (Fer (mouse)): 0.555
phosphorylation enrichment (EPHB1): 1.01
SH2 binding enrichment (Grb2 SH2): 0.96
SH2 binding enrichment (SHP2-C SH2): 0.862
SH2 binding enrichment (c-Src SH2): 0.433

Sequence: GLGGGYGGASG [KRT8_Y54]
phosphorylation enrichment (Jak2): 0.379
phosphorylation enrichment (EPHB2): 0.359
phosphorylation enrichment (c-Abl (mouse)): 0.448
phosphorylation enrichment (c-Src): 0.317
phosphorylation enrichment (AncSZ): 0.429
phosphorylation enrichment (FGFR1): 0.398
phosphorylation enrichment (Fes): 0.534
phosphorylation enrichment (FGFR3): 0.367
phosphorylation enrichment (Fyn): 0.344
phosphorylation enrichment (MERTK): 0.285
phosphorylation enrichment (Hck): 0.316
phosphorylation enrichment (Fer (mouse)): 0.348
phosphorylation enrichment (EPHB1): 0.376
SH2 binding enrichment (Grb2 SH2): 0.692
SH2 binding enrichment (SHP2-C SH2): 0.62
SH2 binding enrichment (c-Src SH2): 0.369

Second part, led by results:

SH2 binding enrichment (Grb2 SH2): 1.01
SH2 binding enrichment (SHP2-C SH2): 0.849
SH2 binding enrichment (c-Src SH2): 0.942
Sequence: FGLDRYQCDCT [PTGS1_Y54]
phosphorylation enrichment (Jak2): 0.874
phosphorylation enrichment (EPHB2): 0.613
phosphorylation enrichment (c-Abl (mouse)): 0.796
phosphorylation enrichment (c-Src): 0.422
phosphorylation enrichment (AncSZ): 1.1
phosphorylation enrichment (FGFR1): 0.587
phosphorylation enrichment (Fes): 1.23
phosphorylation enrichment (FGFR3): 0.861
phosphorylation enrichment (Fyn): 0.524
phosphorylation enrichment (MERTK): 0.454
phosphorylation enrichment (Hck): 0.499
phosphorylation enrichment (Fer (mouse)): 0.492
phosphorylation enrichment (EPHB1): 0.625

SH2 binding enrichment (Grb2 SH2): 0.701
SH2 binding enrichment (SHP2-C SH2): 0.577
SH2 binding enrichment (c-Src SH2): 0.437
Sequence: SQAPGYSFTAA [CYCS_Y47_G42S_YF]
phosphorylation enrichment (Jak2): 0.673
phosphorylation enrichment (EPHB2): 0.465
phosphorylation enrichment (c-Abl (mouse)): 0.764
phosphorylation enrichment (c-Src): 0.414
phosphorylation enrichment (AncSZ): 0.673
phosphorylation enrichment (FGFR1): 0.417
phosphorylation enrichment (Fes): 0.701
phosphorylation enrichment (FGFR3): 0.53
phosphorylation enrichment (Fyn): 0.443
phosphorylation enrichment (MERTK): 0.49
phosphorylation enrichment (Hck): 0.362
phosphorylation enrichment (Fer (mouse)): 0.546
phosphorylation enrichment (EPHB1): 0.433

SH2 binding enrichment (Grb2 SH2): 1.62
SH2 binding enrichment (SHP2-C SH2): 0.697
SH2 binding enrichment (c-Src SH2): 0.873
Sequence: GADDSYYTVRS [ZAP70_Y492_A495V]
phosphorylation enrichment (Jak2): 1.16
phosphorylation enrichment (EPHB2): 0.548
phosphorylation enrichment (c-Abl (mouse)): 0.79
phosphorylation enrichment (c-Src): 1.65
phosphorylation enrichment (AncSZ): 1.43
phosphorylation enrichment (FGFR1): 5.51
phosphorylation enrichment (Fes): 0.882
phosphorylation enrichment (FGFR3): 3.76
phosphorylation enrichment (Fyn): 1.44
phosphorylation enrichment (MERTK): 0.676
phosphorylation enrichment (Hck): 2.39
phosphorylation enrichment (Fer (mouse)): 0.644
phosphorylation enrichment (EPHB1): 0.68

SH2 binding enrichment (Grb2 SH2): 0.952
SH2 binding enrichment (SHP2-C SH2): 0.759
SH2 binding enrichment (c-Src SH2): 0.557
Sequence: MDDKEYYSVHN [MET_Y1234_Y1230D]
phosphorylation enrichment (Jak2): 1.03
phosphorylation enrichment (EPHB2): 0.62
phosphorylation enrichment (c-Abl (mouse)): 0.747
phosphorylation enrichment (c-Src): 0.695
phosphorylation enrichment (AncSZ): 1.99
phosphorylation enrichment (FGFR1): 2.06
phosphorylation enrichment (Fes): 1.06
phosphorylation enrichment (FGFR3): 1.88
phosphorylation enrichment (Fyn): 0.575
phosphorylation enrichment (MERTK): 0.373
phosphorylation enrichment (Hck): 0.619
phosphorylation enrichment (Fer (mouse)): 0.54
phosphorylation enrichment (EPHB1): 0.613

SH2 binding enrichment (Grb2 SH2): 0.873
SH2 binding enrichment (SHP2-C SH2): 0.537
SH2 binding enrichment (c-Src SH2): 0.421
Sequence: KGERGYPGTLG [COL4A1_Y348_P352L]
phosphorylation enrichment (Jak2): 0.475
phosphorylation enrichment (EPHB2): 0.439
phosphorylation enrichment (c-Abl (mouse)): 0.398
phosphorylation enrichment (c-Src): 0.337
phosphorylation enrichment (AncSZ): 0.597
phosphorylation enrichment (FGFR1): 0.375
phosphorylation enrichment (Fes): 0.505
phosphorylation enrichment (FGFR3): 0.484
phosphorylation enrichment (Fyn): 0.392
phosphorylation enrichment (MERTK): 0.403
phosphorylation enrichment (Hck): 0.448
phosphorylation enrichment (Fer (mouse)): 0.345
phosphorylation enrichment (EPHB1): 0.339

SH2 binding enrichment (Grb2 SH2): 0.753
SH2 binding enrichment (SHP2-C SH2): 1.07
SH2 binding enrichment (c-Src SH2): 0.528
Sequence: EVDGLYREAPI [MYL12B_Y143_E141G]
phosphorylation enrichment (Jak2): 0.83
phosphorylation enrichment (EPHB2): 0.527
phosphorylation enrichment (c-Abl (mouse)): 0.662
phosphorylation enrichment (c-Src): 0.482
phosphorylation enrichment (AncSZ): 0.879
phosphorylation enrichment (FGFR1): 0.629
phosphorylation enrichment (Fes): 0.976
phosphorylation enrichment (FGFR3): 0.718
phosphorylation enrichment (Fyn): 0.488
phosphorylation enrichment (MERTK): 0.443
phosphorylation enrichment (Hck): 0.536
phosphorylation enrichment (Fer (mouse)): 0.504
phosphorylation enrichment (EPHB1): 0.503

SH2 binding enrichment (Grb2 SH2): 0.909
SH2 binding enrichment (SHP2-C SH2): 0.8
SH2 binding enrichment (c-Src SH2): 0.391
Sequence: RDMMDYMPQGV [CYP21A2_Y259_L261P]
phosphorylation enrichment (Jak2): 0.986
phosphorylation enrichment (EPHB2): 1.28
phosphorylation enrichment (c-Abl (mouse)): 0.912
phosphorylation enrichment (c-Src): 0.596
phosphorylation enrichment (AncSZ): 1.41
phosphorylation enrichment (FGFR1): 0.799
phosphorylation enrichment (Fes): 1.36
phosphorylation enrichment (FGFR3): 0.823
phosphorylation enrichment (Fyn): 0.636
phosphorylation enrichment (MERTK): 0.681
phosphorylation enrichment (Hck): 0.578
phosphorylation enrichment (Fer (mouse)): 0.937
phosphorylation enrichment (EPHB1): 0.921
